Data taken from patent US9193963B2, “Mutant endoglucanase” (Toray Industries, Inc., priority 2011, dated 2015).

B1: EGAc Mutant: mutant EGAc, SEQ ID NO: 32; residue corresponding to 273rd tryptophan substituted with alanine (protein)
chain: MPRALRRVPGSRVMLRVGVVVAVLALVAALANLAVPRPARAAGGGYWHTSGREILDANNVPVRIAGINWFGFETCNYVVHGLWSRDYRSMLDQIKSLGYNTIRLPYSDDILKPGTMPNSINFYQMNQDLQGLTSLQVMDKIVAYAGQIGLRIILDRHRPDCSGQSALWYTSSVSEATWISDLQALAQRYKGNPTVVGFDLHNEPHDPACWGCGDPSIDWRLAAERAGNAVLSVNPNLLIFVEGVQSYNGDSYWAGGNLQGAGQYPVVLNVPNRLVYSAHDYATSVYPQTWFSDPTFPNNMPGIWNKNWGYLFNQNIAPVWLGEFGTTLQSTTDQTWLKTLVQYLRPTAQYGADSFQWTFWSWNPDSGDTGGILKDDWQTVDTVKDGYLAPIKSSIFDPVGASASPSSQPSPSVSPSPSPSPSASRTPTPTPTPTASPTPTLTPTATPTPTASPTPSPTAASGARCTASYQVNSDWGNGFTVTVAVTNSGSVATKTWTVSWTFGGNQTITNSWNAAVTQNGQSVTARNMSYNNVIQPGQNTTFGFQASYTGSNAAPTVACAAS
modifications: Acidthermus cellulolyticus EGAc W254A
notes: residue corresponding to 273rd tryptophan substituted with alanine
B2: EGSt Wild-type: Spirochaeta thermophile-derived endoglucanase, SEQ ID NO: 37, parent endoglucanase (protein)
chain: MKYLRTILLSLLVFLITLGCSLPFLDVSGKGGTAARATELRVGRLTGVNWFGFETGNHVVHGLWARDYKSMLKQIADLGFNCIRIPWANEMIDKAPNSIQINPSGVDPYTGEQGLNLDLEGLSSLEVLDKIIEEANRLGLYVILDNHSRAADGYMNETLWYTDEYPEERWISDWVMMVRRYKNYPNVIGADLNNEPHGNTGTGMKPPATWGYTLPEYGDTDWKAAAERCAAAILAENPNLYIIVEGVEEYQGDTYWWGGNLKGVRDYPITSIPAENLIYSPHEYGPEVYNQSWFSDPTFPDNMPAIWDEHFWFIYKENIAPVLIGEFGIKEASAADPSSVAYQWFTTFMAYVGDKASWTFWSWNPNSGDTGGILKDDWVTVNEAKYNLIRPYLANPPQPTATPTPTGTPTPTPTPTPTPTPTPTPTPTPTPTATPTPTPTPTPTPTPTPTATPTPSGEYTEIALPFSYDGAGEYYWKTDQFSTDPNDWSRYVNSWNLDLLEINGTDYTNVWVAQHQIPAASDGYWYIHYKSGVSWGHVEIK
modifications: Spirochaeta thermophila EGSt

Columns and labels:
[1] = Saccharification of lignocellulose 3 with Trichoderma reesei culture solution and endoglucanase; format: biochemical, Rice straw; settings: Lignocellulose 3, 24 hours; cellulase 1.0 mg/mL + endoglucanase 0.1 mg/mL + β-glucosidase (Novozyme 188) 0.01 mg/mL
Procedure: (§1) Rice straw was used as cellulose. The cellulose was immersed in water, and then autoclaved with agitation at 180° C. for 20 minutes (Nitto Koatsu Co. Ltd.). Pressure at this time was 10 MPa. After treatment, a solution component (hereinafter, referred to as “hydrothermally treated solution”) and the treated biomass component were subjected to solid-liquid separation by centrifugation (3000 G). The thus treated biomass component was used as lignocellulose 3 for the following examples.
(§2) The changes in the amount of glucose generated when the enzyme composition had been caused to act on lignocellulose substrates were compared. The substrates were prepared by suspending 5 wt % lignocelluloses (1 to 3) (prepared in Reference Example 3) in 50 mM acetate buffer (pH5.2). Reactions were performed at 50° C. for 24 hours. The concentrations of the generated glucose were measured after adequate sampling. As a filamentous bacterium-derived cellulase mixture, commercially available Trichoderma reesei-derived cellulase (Celluclast, Sigma) was used. As endoglucanases, the mutant endoglucanases prepared in Example 2 and the wild-type endoglucanases prepared in Reference Example 1 were separately used. The following quantities of enzymes were added: 1.0 mg/mL cellulase, and 0.1 mg/mL endoglucanase (in an amount one tenth that of the cellulase).
(§3) Lignocelluloses (1-3) prepared in Reference Example 3 were used as substrates. The Trichoderma reesei culture solution prepared in Reference Example 4 was used as a filamentous bacterium-derived cellulase mixture. Lignocelluloses (1-3) were hydrolyzed in a manner similar to that in Example 7, except for the quantities of the enzymes added: cellulase (1.0 mg/mL); endoglucanase (0.1 mg/mL (in an amount one tenth that of the cellulase); and β-glucosidase (Novozyme 188) (0.01 mg/mL (in an amount one hundredth that of the cellulase).

[2] = Inhibition experiment with vanillin: degradation of phosphoric acid swollen cellulose; format: biochemical; settings: enzyme 0.5 μM, 1 hour, 50° C., parent at 0 mM = 100%
Procedure: (§6) This substance was diluted using buffer and water to obtain a 2 wt % mixture so that the final concentration of sodium acetate was 50 mM (pH 5.2). This was designated as phosphoric acid swollen cellulose and used for the following examples.
The activity of the wild-type and the mutant endoglucanases to degrade phosphoric acid swollen cellulose in the presence of vanillin was measured. 1% phosphoric acid swollen cellulose/50 mM acetate buffer (pH 5.2) was used as a substrate. Vanillin (Sigma Aldrich) was added at final concentrations of 0, 5, 10, and 15 mM. The enzymes prepared in Reference Example 1 and Example 2 were added at a final concentration of 0.5 μM, followed by 1 hour of enzymatic reaction at 50° C.

[3] = Activity to degrade phosphoric acid swollen cellulose; format: biochemical; settings: 1% phosphoric acid swollen cellulose, pH 5.2, enzyme 0.5 μM, 1 hour, 50° C.; glucose generated by each parent endoglucanase = 100%
Procedure: The term “identity” refers to the percentage of amino acid residues identical to and amino acid residues analogous to the other amino acid residues in all the amino acid residues overlapped when an optimum alignment is performed by introducing gaps or no gaps into two amino acid sequences and then aligning the two amino acid sequences. Such an identity can be found using a method known by persons skilled in the art, sequence analysis software, and the like (a known algorithm such as BLAST or FASTA). The term “endoglucanase activity” is as defined above and can be determined by adding an enzyme solution to a substrate solution of phosphoric acid swollen cellulose that has been dissolved in 50 mM acetic acid-sodium acetate buffer (pH 5.2) or the like, performing 1 hour of reaction at 30° C. to 85° C., stopping the reaction by changing the pH if necessary, and then determining the concentration of glucose in the reaction solution using a glucose determination kit, for example.
The mutants obtained in Comparative Example 1 were compared in terms of activity by a technique similar to that in Example 3. The concentration (g/L) of glucose generated by each parent endoglucanase under the above reaction conditions was determined to be 100%.

[4] = Saccharification of lignocellulose 1 with Celluclast and endoglucanase; format: biochemical, Rice straw; settings: 5 wt % Lignocellulose 1, pH 5.2, 50° C., 24 hours; 1.0 mg/mL cellulase + 0.1 mg/mL endoglucanase
Procedure: (§4) Rice straw was used as cellulose. The cellulose was added to a small reactor (Taiatsu Techno Corporation, TVS-N2 (30 ml)), and then cooled with liquid nitrogen. An ammonia gas was fed to the reactor, thereby completely immersing the sample in the liquid ammonia. The reactor was closed using its lid, and then left to stand at room temperature for 15 minutes. Subsequently, treatment was performed for 1 hour in an oil bath at 150° C. After treatment, the reactor was removed from the oil bath, an ammonia gas leak was immediately performed within a draft chamber. The reactor was vacuumed using a vacuum pump to 10 Pa for drying. The resultant was used as lignocellulose 1 in the following examples.
as §2

[5] = Saccharification of lignocellulose 3 with Celluclast and endoglucanase; format: biochemical, Rice straw; settings: 5 wt % Lignocellulose 3, pH 5.2, 50° C., 24 hours; 1.0 mg/mL cellulase + 0.1 mg/mL endoglucanase
Procedure: as §1, §2

[6] = Saccharification of lignocellulose 2 with Trichoderma reesei culture solution and endoglucanase; format: biochemical, Rice straw; settings: Lignocellulose 2, 24 hours; cellulase 1.0 mg/mL + endoglucanase 0.1 mg/mL + β-glucosidase (Novozyme 188) 0.01 mg/mL
Procedure: (§5) Rice straw was used as cellulose. Cellulose was immersed in a 1% aqueous sulfuric acid solution, and then autoclaved for 30 minutes at 150° C. (Nitto Koatsu Co. Ltd.). After treatment, the resultant was subjected to solid-liquid separation into an aqueous sulfuric acid solution (hereinafter, referred to as “dilute-sulfuric-acid-treated solution”) and cellulose treated with sulfuric acid. Next, the cellulose treated with sulfuric acid was mixed and agitated with the dilute-sulfuric-acid-treated solution so that the solid content concentration was 10 wt %. Then the mixture was adjusted to around pH 5 using sodium hydroxide. The resultant was used as lignocellulose 2 for the following examples.
as §2, §3

[7] = Inhibition experiment with ferulic acid: degradation of phosphoric acid swollen cellulose; format: biochemical; settings: enzyme 0.5 μM, 1 hour, 50° C., parent at 0 mM = 100%
Procedure: as §6
The activity of the wild-type and the mutant endoglucanases to degrade phosphoric acid swollen cellulose was measured in the presence of ferulic acid. 1% phosphoric acid swollen cellulose/50 mM acetate buffer (pH 5.2) was used as a substrate. Ferulic acid (Sigma Aldrich) was added at final concentrations of 0, 5, 10, and 15 mM. The enzymes prepared in Reference Example 1 and Example 2 were each added at a final concentration of 0.5 μM, followed by 1 hour of enzymatic reaction at 50° C.

[8] = Saccharification of lignocellulose 1 with Trichoderma reesei culture solution and endoglucanase; format: biochemical, Rice straw; settings: Lignocellulose 1, 24 hours; cellulase 1.0 mg/mL + endoglucanase 0.1 mg/mL + β-glucosidase (Novozyme 188) 0.01 mg/mL
Procedure: as §4, §2, §3

[9] = Saccharification of lignocellulose 2 with Celluclast and endoglucanase; format: biochemical, Rice straw; settings: 5 wt % Lignocellulose 2, pH 5.2, 50° C., 24 hours; 1.0 mg/mL cellulase + 0.1 mg/mL endoglucanase
Procedure: as §5, §2

Molecule | Relative activity to degrade phosphoric acid swollen cellulose ([2]; vanillin 0 mM) [%] | Relative activity to degrade phosphoric acid swollen cellulose ([2]; vanillin 5 mM) [%] | Relative activity to degrade phosphoric acid swollen cellulose ([2]; vanillin 10 mM) [%] | Relative activity to degrade phosphoric acid swollen cellulose ([2]; vanillin 15 mM) [%] | Relative activity [3] [%] | Relative activity to degrade phosphoric acid swollen cellulose ([7]; ferulic acid 0 mM) [%] | Relative activity to degrade phosphoric acid swollen cellulose ([7]; ferulic acid 5 mM) [%] | Relative activity to degrade phosphoric acid swollen cellulose ([7]; ferulic acid 10 mM) [%] | Relative activity to degrade phosphoric acid swollen cellulose ([7]; ferulic acid 15 mM) [%] | further results
B1 | 100 | 100 | 95 | 95 | 100 | 100 | 100 | 100 | 95 | Concentration of glucose generated, Culture solution + Mutant [1]: 11 g/L; Concentration of glucose generated, Celluclast + Mutant [4]: 16 g/L; Concentration of glucose generated, Celluclast + Mutant [5]: 14 g/L; Concentration of glucose generated, Culture solution + Mutant [6]: 11 g/L; Concentration of glucose generated, Culture solution + Mutant [8]: 13 g/L; Concentration of glucose generated, Celluclast + Mutant [9]: 14 g/L
B2 | 100 | 50 | 50 | 45 | 100 | 100 | 50 | 45 | 40 | Concentration of glucose generated, Culture solution + Wild-type [1]: 8 g/L; Concentration of glucose generated, Celluclast + Wild-type [4]: 11 g/L; Concentration of glucose generated, Celluclast + Wild-type [5]: 11 g/L; Concentration of glucose generated, Culture solution + Wild-type [6]: 9 g/L; Concentration of glucose generated, Culture solution + Wild-type [8]: 8 g/L; Concentration of glucose generated, Celluclast + Wild-type [9]: 12 g/L
